Laboratory results taken from patent US20220195063A1 (BYONDIS B V, published 2022).

T1: cynomolgus SIRPα (cySIRPα), protein antigen (cynomolgus monkey, UniProt A0A2K5VYQ9 31-369)
T1 construct: Coated on the plate in ELISA
T1 sequence: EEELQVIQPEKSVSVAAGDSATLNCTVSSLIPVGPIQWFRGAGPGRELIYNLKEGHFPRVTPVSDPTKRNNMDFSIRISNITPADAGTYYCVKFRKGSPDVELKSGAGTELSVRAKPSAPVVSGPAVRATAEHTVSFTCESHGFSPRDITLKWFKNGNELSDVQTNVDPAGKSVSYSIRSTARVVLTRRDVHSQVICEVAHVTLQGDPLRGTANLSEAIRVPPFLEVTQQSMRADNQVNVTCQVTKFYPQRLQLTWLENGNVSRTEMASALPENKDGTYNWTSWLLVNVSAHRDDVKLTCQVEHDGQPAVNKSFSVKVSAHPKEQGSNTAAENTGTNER

T2: cynomolgus SIRPα expressed on cells (cynomolgus monkey, UniProt A0A2K5VYQ9 31-507)
T2 construct: whole, on cells; also called ExpiCHO-S (cySIRPα)
T2 sequence: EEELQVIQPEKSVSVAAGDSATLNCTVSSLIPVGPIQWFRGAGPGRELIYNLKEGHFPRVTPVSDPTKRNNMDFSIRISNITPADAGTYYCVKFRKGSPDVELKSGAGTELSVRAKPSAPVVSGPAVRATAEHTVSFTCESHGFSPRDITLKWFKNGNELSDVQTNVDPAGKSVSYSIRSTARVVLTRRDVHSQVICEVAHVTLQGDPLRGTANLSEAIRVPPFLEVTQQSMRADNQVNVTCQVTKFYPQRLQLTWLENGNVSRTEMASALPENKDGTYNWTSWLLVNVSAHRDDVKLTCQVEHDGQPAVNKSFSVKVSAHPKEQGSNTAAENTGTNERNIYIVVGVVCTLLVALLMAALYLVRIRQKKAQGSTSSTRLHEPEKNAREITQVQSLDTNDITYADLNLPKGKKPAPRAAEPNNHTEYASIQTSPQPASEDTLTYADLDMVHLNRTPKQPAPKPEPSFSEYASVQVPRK


Experiments:
[1] = molecular target: human SIRPαBIT (huSIRPαBIT), protein antigen (human) (UniProt P78324); experiment: ELISA, antigen coated
[2] = molecular target: human SIRPβ1v1 (huSIRPβ1v1) (human) (UniProt O00241); experiment: ELISA, antigen coated
[3] = molecular target: human SIRPαBIT (huSIRPαBIT), protein antigen (human) (UniProt P78324); experiment: SPR, biotinylated antigen captured, 25 C
[4] = molecular target: T3, human SIRPβ1v2 (huSIRPβ1v2) (human, UniProt Q5TFQ8 30-371); experiment: ELISA, antigen coated
T3 construct: Coated on the plate in ELISA; Only the Ensembl protein number is printed; also called huSIRPß1v2
Experimental: (§1) ELISA assay: Solutions of huSIRPα₁, huSIRPαBIT, huSIRPβ₁ᵥ₁, huSIRPβ₁ᵥ₂, huSIRPγ and cySIRPα in phosphate buffered saline (PBS) were each added to a multiple well black polystyrene plate for ELISA and allowed to adhere for 1 h at RT. Unbound protein was removed with three washing steps using standard washing buffer. Subsequently, blocking buffer was added to the wells. After 1 h incubation at RT, the wells were washed three times with standard washing buffer. The antibodies in buffer at various concentrations were added to the wells and incubated at RT for 1 h. Unbound antibodies were removed with three washing steps using standard washing buffer. Goat anti human IgG (Fab′)₂:horse radish peroxidase (HRP) in buffer was added to the wells and incubated at RT for 1 h. 3,3′,5,5′-Tetramethylbenzidine (TMB) was added and after sufficient colour development HCl was added. Absorbance was read at 450 nm/620 nm.

[5] = molecular target: T1, cynomolgus SIRPα (cySIRPα), protein …; experiment: ELISA, antigen coated
Experimental: as §1

[6] = molecular target: T4, human SIRPα1 (huSIRPα1), protein antigen (human, UniProt P78324 31-370, limits assumed, biotinylated in the SPR assay); experiment: ELISA, antigen coated
T4 construct: Coated on the plate in ELISA, biotinylated and captured in SPR; also called v2
Experimental: as §1

human SIRPγ (huSIRPγ) [7] = molecular target: T5, human SIRPγ (huSIRPγ) (human, UniProt Q9P1W8 29-360, limits assumed, biotinylated in the SPR assay); experiment: ELISA, antigen coated
T5 construct: Coated on the plate in ELISA, biotinylated and captured in SPR
Experimental: as §1

[8] = molecular target: human SIRPαBIT expressed on cells (human) (UniProt P78324); experiment: flow cytometry, U937 cells
[9] = molecular target: T4, human SIRPα1 (huSIRPα1), protein antigen; experiment: SPR, biotinylated antigen captured, 25 C
Experimental: (§2) Surface Plasmon Resonance (SPR) assay: Affinity analysis was performed by single cycle kinetics analysis on a Surface Plasmon Resonance apparatus (Biacore T200 system, GE Life Sciences) at 25° C. Biotinylated SIRP antigens were captured on the surface of a chip suitable for biotinylated molecules (Sensor Chip CAP, GE Life Sciences) by injecting 5 μg/ml of the SIRP antigen in running buffer (10 mM HEPES buffer at pH 7.4 with 150 mM NaCl, 3 mM EDTA and 0.005% v/v polyoxyethylene (20) sorbitan monolaurate (Surfactant P20) for 60 sec at 10 μL/min after injection of a streptavidin conjugate (20× diluted biotin CAPture reagent, GE Life Sciences) for 60 sec at 10 μl/min. Baseline stabilization was set at 1 min after which five increasing concentrations of an anti-SIRP antibody in running buffer (10 mM HEPES buffer at pH 7.4 with 150 mM NaCl, 3 mM EDTA and 0.005% v/v polyoxyethylene (20) sorbitan monolaurate) were injected. For each step an association time of 150 sec was used, followed by a dissociation time of 1200 sec at the highest concentration only, all at a flow rate of 30 μL/min. Regeneration was performed with 6 M guanidine-HCl, 0.25 M NaOH solution (60 sec with flow rate of 30 μL/min). Double blank subtraction was performed on the observed sensorgrams using a non anti-SIRP (blank) immobilized reference flow channel and running buffer injection. Sensorgrams were fitted with a 1:1 Langmuir model for all tested anti-SIRP antibodies. The kinetic parameters (kₐ, kd and KD) were calculated using the Biacore T200 evaluation software (v3.1).

human SIRPγ (huSIRPγ) [10] = molecular target: T5, human SIRPγ (huSIRPγ); experiment: SPR, biotinylated antigen captured, 25 C
Experimental: as §2

[11] = molecular target: human SIRPαBIT expressed on cells (human) (UniProt P78324); experiment: flow cytometry, ExpiCHO-S cells
[12] = molecular target: T2, cynomolgus SIRPα expressed on cells; experiment: flow cytometry, ExpiCHO-S cells
Text: (§3) Flow Cytometry: U937 cells endogenously expressing human SIRPαBIT antigen and cells derived from a non-engineered subclone that has been screened and isolated from CHO-S Chinese hamster ovary cells (ExpiCHO-S) cells expressing human SIRPα₁, SIRPαBIT or cySIRPα antigen (100,000 cells/well in a 96-well plate) were washed three times with ice-cold FACS buffer (1×PBS (LONZA) containing 0.2% v/w BSA (Sigma-Aldrich, St. Louis, Mo.) and 0.02% v/w NaN₃ (Sigma-Aldrich), followed by the addition of a concentration range of each primary mAb (50 μL/well) diluted in ice-cold FACS buffer. After an incubation time of 30 min at 4° C., the cells were washed three times with ice-cold FACS buffer and 50 μL/well secondary mAb (AffiniPure F(ab′)₂ fragment Goat-anti-human IgG-APC, 1:6,000 dilution, Jackson Immuno Research) was added. After 30 min at 4° C., cells were washed twice and resuspended in 150 μL FACS buffer. Fluorescence intensities were determined by flow cytometry (BD FACSVerse, Franklin Lakes, N.J.) and indicated as the median fluorescence intensity (MFI-Median) for U937 cells and ExpiCHO-S cells. Curves were fitted by nonlinear regression using the sigmoidal dose-response equation with variable slope (four parameters) in GraphPad Prism (version 7.02 for Windows, GraphPad, San Diego, Calif.). EC₅₀ values were calculated as the concentration in μg/mL that gives a response half way between bottom and top of the curve, when using a 4-parameter logistic fit.

[13] = molecular target: T6, human SIRPα1 expressed on cells (human, UniProt P78324 31-504); experiment: flow cytometry, ExpiCHO-S cells
T6 construct: whole, on cells; also called ExpiCHO-S (huSIRPα1); CHO cells expressing huSIRPα1
Text: as §3

human SIRPβ1v1 (huSIRPβ1v1) (human), sequence (O00241 30-371): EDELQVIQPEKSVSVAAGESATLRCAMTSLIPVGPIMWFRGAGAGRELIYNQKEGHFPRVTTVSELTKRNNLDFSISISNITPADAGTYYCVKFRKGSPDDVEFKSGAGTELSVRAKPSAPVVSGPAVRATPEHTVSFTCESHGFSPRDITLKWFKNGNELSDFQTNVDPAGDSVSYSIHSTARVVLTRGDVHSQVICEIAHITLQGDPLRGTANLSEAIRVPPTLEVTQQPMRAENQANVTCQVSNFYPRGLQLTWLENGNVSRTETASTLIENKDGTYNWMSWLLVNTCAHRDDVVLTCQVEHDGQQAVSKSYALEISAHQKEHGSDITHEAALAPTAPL
T3 sequence (Q5TFQ8 30-371 limits assumed): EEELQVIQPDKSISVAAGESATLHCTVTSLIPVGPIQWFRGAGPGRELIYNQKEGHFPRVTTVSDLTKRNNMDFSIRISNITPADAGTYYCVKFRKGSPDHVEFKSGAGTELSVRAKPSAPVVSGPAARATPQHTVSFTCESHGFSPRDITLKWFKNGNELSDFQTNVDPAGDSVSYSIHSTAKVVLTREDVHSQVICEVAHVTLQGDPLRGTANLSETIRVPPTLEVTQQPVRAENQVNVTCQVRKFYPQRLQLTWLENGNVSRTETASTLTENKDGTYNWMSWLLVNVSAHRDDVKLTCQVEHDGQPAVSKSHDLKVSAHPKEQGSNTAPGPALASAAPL
T4 sequence (P78324 other isoform, or with tags, fused parts or gaps limits assumed): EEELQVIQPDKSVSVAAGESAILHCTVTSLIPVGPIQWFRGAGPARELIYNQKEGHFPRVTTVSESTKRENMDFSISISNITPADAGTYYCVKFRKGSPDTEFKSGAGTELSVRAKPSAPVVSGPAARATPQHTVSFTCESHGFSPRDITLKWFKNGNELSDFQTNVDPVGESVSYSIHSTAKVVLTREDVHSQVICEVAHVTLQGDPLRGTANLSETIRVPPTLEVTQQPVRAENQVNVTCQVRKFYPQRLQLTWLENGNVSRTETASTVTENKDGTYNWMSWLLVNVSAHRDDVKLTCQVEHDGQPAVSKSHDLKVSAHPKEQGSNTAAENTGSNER
human SIRPαBIT expressed on cells (human), sequence (P78324 31-504): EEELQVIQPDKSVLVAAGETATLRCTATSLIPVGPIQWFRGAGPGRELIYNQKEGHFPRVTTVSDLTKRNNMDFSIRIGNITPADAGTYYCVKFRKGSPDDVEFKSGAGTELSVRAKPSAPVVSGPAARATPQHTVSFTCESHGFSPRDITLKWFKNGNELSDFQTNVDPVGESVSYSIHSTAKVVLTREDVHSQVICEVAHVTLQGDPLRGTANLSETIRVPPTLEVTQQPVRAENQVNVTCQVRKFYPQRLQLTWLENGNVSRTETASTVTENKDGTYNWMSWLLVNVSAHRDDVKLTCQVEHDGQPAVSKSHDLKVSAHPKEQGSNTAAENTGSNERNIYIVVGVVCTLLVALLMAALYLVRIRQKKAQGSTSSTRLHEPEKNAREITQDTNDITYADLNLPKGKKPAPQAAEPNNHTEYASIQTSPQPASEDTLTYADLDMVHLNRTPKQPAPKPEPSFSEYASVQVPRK
T5 sequence (Q9P1W8 29-360 limits assumed): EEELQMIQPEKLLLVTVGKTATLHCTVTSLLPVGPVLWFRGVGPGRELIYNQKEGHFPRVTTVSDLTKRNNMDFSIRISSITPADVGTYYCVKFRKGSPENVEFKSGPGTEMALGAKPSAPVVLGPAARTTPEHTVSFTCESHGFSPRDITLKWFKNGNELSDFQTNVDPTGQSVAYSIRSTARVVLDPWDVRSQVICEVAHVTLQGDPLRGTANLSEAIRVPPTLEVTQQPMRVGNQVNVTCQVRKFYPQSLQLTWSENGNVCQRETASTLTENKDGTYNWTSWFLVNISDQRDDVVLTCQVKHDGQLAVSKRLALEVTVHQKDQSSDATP
human SIRPαBIT (huSIRPαBIT), protein antigen (human), sequence (P78324 31-370): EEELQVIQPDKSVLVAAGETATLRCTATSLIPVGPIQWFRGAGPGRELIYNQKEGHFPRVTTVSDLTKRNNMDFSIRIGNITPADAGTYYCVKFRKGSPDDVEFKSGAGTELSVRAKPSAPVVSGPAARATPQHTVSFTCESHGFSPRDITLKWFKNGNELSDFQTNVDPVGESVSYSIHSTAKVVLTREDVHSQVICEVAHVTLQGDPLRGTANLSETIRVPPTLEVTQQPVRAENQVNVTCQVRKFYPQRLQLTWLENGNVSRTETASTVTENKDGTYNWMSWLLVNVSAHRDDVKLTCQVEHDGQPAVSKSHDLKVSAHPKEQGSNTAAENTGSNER
T6 sequence (P78324 other isoform, or with tags, fused parts or gaps limits assumed): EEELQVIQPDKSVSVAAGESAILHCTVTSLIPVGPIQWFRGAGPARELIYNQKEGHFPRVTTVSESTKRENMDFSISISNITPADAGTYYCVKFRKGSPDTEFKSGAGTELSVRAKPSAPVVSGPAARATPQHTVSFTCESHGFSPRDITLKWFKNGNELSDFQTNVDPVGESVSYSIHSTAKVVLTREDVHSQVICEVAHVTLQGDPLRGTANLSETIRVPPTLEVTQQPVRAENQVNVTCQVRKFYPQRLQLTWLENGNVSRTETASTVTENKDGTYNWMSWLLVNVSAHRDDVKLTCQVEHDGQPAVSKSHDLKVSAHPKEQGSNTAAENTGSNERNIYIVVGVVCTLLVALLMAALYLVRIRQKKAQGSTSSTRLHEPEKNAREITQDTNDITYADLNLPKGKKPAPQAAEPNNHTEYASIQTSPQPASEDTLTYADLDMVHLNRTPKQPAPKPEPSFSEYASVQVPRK

| Binder | EC50 [1] | EC50 [2] | Kd [3] | EC50 [4] | EC50 [5] | EC50 [6] | EC50 (human SIRPγ (huSIRPγ) [7]) | EC50 [8] | Kd [9] | Kd (human SIRPγ (huSIRPγ) [10]) | EC50 [11] | EC50 [12] | EC50 [13] | binding result (human SIRPγ (huSIRPγ) [10]) |
| --- | --- | --- | --- | --- | --- | --- | --- | --- | --- | --- | --- | --- | --- | --- |
| anti-SIRPα antibody 4 (antibody, human IgG1, kappa, L234A L235A, V domains shown, Chimeric: rabbit variable regions on human IgG1 LALA / kappa; also called chimeric antibody 4) VH: QSVEESGGRLGTPGTPLTLTCTVSGFSLSSYVMGWFRQAPGKGLEYIGIISSSGSPYYASWVNGRFTISKTSTTMDLKMNSPTTEDTATYFCARVGPLGVDYFNIWGPGTLVTVSL VL: DIVMTQTPSSVEAAVGGTVTIKCQAGQSINSYLAWYQQKPGQRPKLLIYYASTLESGVPSRFKGSGSGTDYTLTISDLESADAATYYCQSWHYISRSYAFGGGTEVVVKR | 0.025 µg/mL | > 100 µg/mL | < 0.01 nM | 0.092 µg/mL | 0.099 µg/mL | 0.053 µg/mL | > 100 µg/mL | 0.12 µg/mL | 0.026 nM | – | 0.23 µg/mL | 0.18 µg/mL | 0.41 µg/mL | – |
| anti-SIRPα antibody 5 (antibody, human IgG1, kappa, L234A L235A, V domains shown, Rabbit variable regions on human IgG1 LALA / kappa) VH: QSVEESGGRLVTPGTPLTLTCTVSGFSLSSYVMGWFRQAAGKGLEYIGYINADGSPYYATWVNGRFTISKTPTTMDLKINSPTTEDTATYFCARVGPLGVDYFNIWGPGTLVTVSL VL: DIVMTQTPASVEAAVGGTVTIKCQASQSINRYLTWYQQKPGQRPKLLIYYASTLESGVPSRFEGSGSGTDYTLTISDLESADAATYYCQSYYYISRTYAFGGGTEVVVKR | 0.021 µg/mL | 3.52 µg/mL | – | 0.11 µg/mL | 0.123 µg/mL | 0.031 µg/mL | > 100 µg/mL | 0.16 µg/mL | – | – | 0.22 µg/mL | 0.26 µg/mL | 0.27 µg/mL | – |
| anti-SIRPα antibody 12 humanized (antibody, human IgG1, kappa, L234A L235A, V domains shown, Humanized, human IgG1 LALA / kappa) VH: VQLVESGGRLVQPGTPLTLSCTVSGFSLSSYVMGWFRQAPGKGLEYIGIISSSGSPYYASWVNGRFTISKTSTTMDLKMNSLRSEDTATYFCARVGPLGVDYFNIWGPGTLVTVSS VL: DIVMTQTPSSVEAAVGGTVTIKCQAGQSINSYLAWYQQKPGQRPKLLIYYASTLESGVPSRFKGSGSGTDYTLTISDLESADAATYYCQSWHYISRSYAFGGGTEVVVKR | – | – | < 0.01 nM | – | – | – | – | 0.2 µg/mL | 0.059 nM | – | 0.46 µg/mL | 0.17 µg/mL | 0.1 µg/mL | no binding |

Results, then the binder that gave them:

| EC50 [1] | EC50 [2] | Kd [3] | EC50 [4] | EC50 [5] | EC50 [6] | EC50 (human SIRPγ (huSIRPγ) [7]) | EC50 [8] | Kd [9] | Kd (human SIRPγ (huSIRPγ) [10]) | EC50 [11] | EC50 [12] | EC50 [13] | binding result (human SIRPγ (huSIRPγ) [10]) | Binder |
| --- | --- | --- | --- | --- | --- | --- | --- | --- | --- | --- | --- | --- | --- | --- |
| 0.005 µg/mL | 0.008 µg/mL | 0.015 nM | 0.006 µg/mL | 0.005 µg/mL | 0.007 µg/mL | 0.006 µg/mL | 0.19 µg/mL | 0.087 nM | 0.016 nM | – | – | – | – | 12C4huIgG1LALA (antibody, V domains shown, HAVT20 leader left out; also called 12C4LALA; huIgG112C4LALA) VH: EVKLEESGGGLMQPGGSMKLSCVASGFTFSNYWMNWVRQSPEKGLEWVAEIRLKSNNYATHYAESVKGRFTISRDDSKSSVYLQMNNLRAEDTGIYYCIRDYDYDAYFDYWGQGTTLTVSS VL: DIVLTQSPASLAVSLGQRATISCRASKSVSTSGYNYMYWYQQKPGQPPKLLIYLASNLESGVPARFSGSGSGTDFTLNIHPVEEEDAATYYCQHSGELPYTFGGGTKLEIKR |
| 0.027 µg/mL | > 100 µg/mL | – | 0.028 µg/mL | 0.038 µg/mL | 0.033 µg/mL | > 100 µg/mL | 0.14 µg/mL | – | – | 0.27 µg/mL | 0.16 µg/mL | 0.19 µg/mL | – | anti-SIRPα antibody 2 (antibody, human IgG1, kappa, L234A L235A, V domains shown, Rabbit variable regions on human IgG1 LALA / kappa) VH: QSVEESGGRLVTPGTPLTLTCTVSGFSLSNYAMHWVRQAPGKGLEWIGIIYTGGATSYATWAKGQFTISKTSTTVDLKITSPTTEDTATYFCARGDRDGYAYFNIWGPGTLVTVSL VL: QIVMTQTPFSVSAVVGGTVTIKCQASHNIGSWLAWYQQKPGQRPKLLIYDASTLASGVSSRFKGSGSGTEFTLTISGVESADAATYYCQQGYGISYVHNVFGGGTEVVVKR |
| 0.02 µg/mL | > 100 µg/mL | – | 0.019 µg/mL | 0.026 µg/mL | 0.019 µg/mL | > 100 µg/mL | 0.12 µg/mL | – | – | 0.18 µg/mL | 0.15 µg/mL | 0.22 µg/mL | – | anti-SIRPα antibody 8 (antibody, human IgG1, kappa, L234A L235A, V domains shown, Rabbit variable regions on human IgG1 LALA / kappa) VH: QSLEESGGRLVTPGTPLTLTCTASGVDLSNYAMGWVRQAPGKGLEWIGIIYAGGSTSYATWAKGRFTISKTSTTMDLKMTSPTTEDTATYFCARHRSDGYDYFHLWGPGTLVTVSL VL: AIDMTQTPASVSEPVGGTVTIKCQASQSISSWLAWYQQKPGQRPKLLIYDASKLASGVPSRFSGSGSGTEFTLTISGVQSDDAAAYYCQQGYAVSYVENIFGGGTEVVVKR |
